± gives the standard deviation.
Assay: collision cross section of modified peptide (TIMS, N2, iRT-aligned); higher = larger / more extended gas-phase ion
How it was run: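 On a timsTOF Pro/HT (dda-PASEF, nitrogen, ~2.4 mbar), synthetic peptide pools were analysed after a 120-min nanoflow C18 separation at 60 °C and identified in MaxQuant. Three reference ions served for 1/K0 calibration, with run-wise alignment to the median iRT peptide deviation. Collision cross section comes from the Mason-Schamp equation, using the most abundant feature per charge state averaged over 1–3 technical replicates.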

[1] = charge state: 2, modification: Dimethyl (K)
[2] = charge state: 3, modification: Dimethyl (K)
[3] = charge state: 2, modification: Formyl
[4] = charge state: 3, modification: Formyl
[5] = charge state: 2, modification: Glutarylation
[6] = charge state: 3, modification: Glutarylation
[7] = charge state: 2, modification: GlyGly (K)
[8] = charge state: 3, modification: GlyGly (K)
[9] = charge state: 2, modification: Malonyl
[10] = charge state: 3, modification: Malonyl
[11] = charge state: 2, modification: Methyl (K)
[12] = charge state: 3, modification: Methyl (K)
[13] = charge state: 2, modification: Succinyl
[14] = charge state: 3, modification: Succinyl
[15] = charge state: 2, modification: Trimethyl (K)
[16] = charge state: 3, modification: Trimethyl (K)
[17] = charge state: 2, modification: hydroxyisobutyryl
[18] = charge state: 3, modification: hydroxyisobutyryl
[19] = charge state: 2, modification: Acetyl (K)
[20] = charge state: 3, modification: Acetyl (K)
[21] = charge state: 3, modification: Biotin
[22] = charge state: 2, modification: Butyryl
[23] = charge state: 3, modification: Butyryl
[24] = charge state: 2, modification: Crotonyl
[25] = charge state: 3, modification: Crotonyl
[26] = charge state: 2, modification: Nitro (Y)
[27] = charge state: 2, modification: Phospho (Y)
[28] = charge state: 3, modification: Citrullination (R)
[29] = charge state: 3, modification: Methyl (R)

## GTISAPGKVVTAAAQAK [_GTISAPGK(Dimethyl (K))VVTAAAQAK_]
[1]
  collision cross section: 470.82 ± 0.68 Å²
[2]
  collision cross section: 493.04 ± 1.7 Å²

## GTISAPGKVVTAAAQAK [_GTISAPGK(Formyl)VVTAAAQAK_]
[3]
  collision cross section: 440.5 ± 0.16 Å²
[4]
  collision cross section: 511.74 ± 2.1 Å²

## GTISAPGKVVTAAAQAK [_GTISAPGK(Gluratylation)VVTAAAQAK_]
[5]
  collision cross section: 445.81 ± 0.95 Å²
[6]
  collision cross section: 526.52 ± 1.1 Å²

## GTISAPGKVVTAAAQAK [_GTISAPGK(GlyGly (K))VVTAAAQAK_]
[7]
  collision cross section: 456.01 ± 1.6 Å²
[8]
  collision cross section: 541.49 ± 0.36 Å²

## GTISAPGKVVTAAAQAK [_GTISAPGK(Malonyl)VVTAAAQAK_]
[9]
  collision cross section: 432.93 ± 5.1 Å²
[10]
  collision cross section: 519.93 ± 1.9 Å²

## GTISAPGKVVTAAAQAK [_GTISAPGK(Methyl (K))VVTAAAQAK_]
[11]
  collision cross section: 466.62 ± 2.3 Å²
[12]
  collision cross section: 495.95 ± 2.3 Å²

## GTISAPGKVVTAAAQAK [_GTISAPGK(Succinyl)VVTAAAQAK_]
[13]
  collision cross section: 439.98 ± 0.51 Å²
[14]
  collision cross section: 520.85 ± 1.6 Å²

## GTISAPGKVVTAAAQAK [_GTISAPGK(Trimethyl (K))VVTAAAQAK_]
[15]
  collision cross section: 476.61 ± 0.99 Å²
[16]
  collision cross section: 496.52 ± 0.86 Å²

## GTISAPGKVVTAAAQAK [_GTISAPGK(hydroxyisobutyryl)VVTAAAQAK_]
[17]
  collision cross section: 447.84 ± 0.78 Å²
[18]
  collision cross section: 524.07 ± 2 Å²

## GTITVSAQELKDNR [_GTITVSAQELK(Acetyl (K))DNR_]
[19]
  collision cross section: 415.96 ± 1.9 Å²
[20]
  collision cross section: 479.46 ± 0.78 Å²

## GTITVSAQELKDNR [_GTITVSAQELK(Biotin)DNR_]
Charge state: 2, modification: Biotin
  collision cross section: 437.8 ± 0.23 Å²
[21]
  collision cross section: 500.75 Å²

## GTITVSAQELKDNR [_GTITVSAQELK(Butyryl)DNR_]
[22]
  collision cross section: 422.6 ± 0.77 Å²
[23]
  collision cross section: 481.65 ± 2.9 Å²

## GTITVSAQELKDNR [_GTITVSAQELK(Crotonyl)DNR_]
[24]
  collision cross section: 422.36 ± 0.55 Å²
[25]
  collision cross section: 483.09 ± 1.6 Å²

## GTITVSAQELKDNR [_GTITVSAQELK(Dimethyl (K))DNR_]
[1]
  collision cross section: 437.65 ± 1.3 Å²
[2]
  collision cross section: 475.47 ± 2.4 Å²

## GTITVSAQELKDNR [_GTITVSAQELK(Formyl)DNR_]
[3]
  collision cross section: 413.69 ± 0.19 Å²
[4]
  collision cross section: 471.67 ± 1.8 Å²

## GTITVSAQELKDNR [_GTITVSAQELK(Gluratylation)DNR_]
[5]
  collision cross section: 422.99 ± 0.48 Å²
[6]
  collision cross section: 483.37 ± 1.7 Å²

## GTITVSAQELKDNR [_GTITVSAQELK(GlyGly (K))DNR_]
[7]
  collision cross section: 442.89 ± 0.96 Å²
[8]
  collision cross section: 487.43 ± 0.34 Å²

## GTITVSAQELKDNR [_GTITVSAQELK(Malonyl)DNR_]
[9]
  collision cross section: 419.75 ± 0.051 Å²

## GTITVSAQELKDNR [_GTITVSAQELK(Methyl (K))DNR_]
[11]
  collision cross section: 439.73 ± 1.7 Å²
[12]
  collision cross section: 485.75 ± 3.3 Å²

## GTITVSAQELKDNR [_GTITVSAQELK(Propionyl)DNR_]
Charge state: 2, modification: Propionyl
  collision cross section: 415.55 Å²

## GTITVSAQELKDNR [_GTITVSAQELK(Succinyl)DNR_]
[13]
  collision cross section: 421.79 ± 0.53 Å²
[14]
  collision cross section: 480.4 ± 2.5 Å²

## GTITVSAQELKDNR [_GTITVSAQELK(Trimethyl (K))DNR_]
[15]
  collision cross section: 442.48 ± 1 Å²
[16]
  collision cross section: 479.04 ± 1.8 Å²

## GTITVSAQELKDNR [_GTITVSAQELK(hydroxyisobutyryl)DNR_]
[17]
  collision cross section: 423.58 ± 0.3 Å²
[18]
  collision cross section: 485.27 ± 2.8 Å²

## GTPGKPGPR [_GTPGKP(Hydroxyproline)GPR_]
Charge state: 2, modification: Hydroxyproline
  collision cross section: 308.55 Å²

## GTVPDDAVEALADSLGKK [_GTVPDDAVEALADSLGK(Acetyl (K))K_]
[19]
  collision cross section: 449.76 ± 3.1 Å²
[20]
  collision cross section: 527.69 ± 0.69 Å²

## GTVPDDAVEALADSLGKK [_GTVPDDAVEALADSLGK(Butyryl)K_]
[22]
  collision cross section: 458.53 ± 0.36 Å²
[23]
  collision cross section: 534.24 ± 1.4 Å²

## GTVPDDAVEALADSLGKK [_GTVPDDAVEALADSLGK(Crotonyl)K_]
[24]
  collision cross section: 456.44 ± 0.38 Å²
[25]
  collision cross section: 536.14 Å²

## GTVPDDAVEALADSLGKK [_GTVPDDAVEALADSLGK(Dimethyl (K))K_]
[1]
  collision cross section: 485.51 ± 1.7 Å²
[2]
  collision cross section: 525.76 Å²

## GTVPDDAVEALADSLGKK [_GTVPDDAVEALADSLGK(Formyl)K_]
[3]
  collision cross section: 449.34 ± 1.3 Å²
[4]
  collision cross section: 523.67 ± 1.8 Å²

## GTVPDDAVEALADSLGKK [_GTVPDDAVEALADSLGK(Gluratylation)K_]
[5]
  collision cross section: 452.53 ± 1.2 Å²
[6]
  collision cross section: 538.57 ± 1.8 Å²

## GTVPDDAVEALADSLGKK [_GTVPDDAVEALADSLGK(GlyGly (K))K_]
[7]
  collision cross section: 485.77 ± 1.3 Å²
[8]
  collision cross section: 534.99 ± 1.1 Å²

## GTVPDDAVEALADSLGKK [_GTVPDDAVEALADSLGK(Malonyl)K_]
[9]
  collision cross section: 454.67 ± 1.4 Å²

## GTVPDDAVEALADSLGKK [_GTVPDDAVEALADSLGK(Methyl (K))K_]
[11]
  collision cross section: 482.51 ± 3.5 Å²
[12]
  collision cross section: 524.02 ± 2.6 Å²

## GTVPDDAVEALADSLGKK [_GTVPDDAVEALADSLGK(Succinyl)K_]
[13]
  collision cross section: 459.53 ± 1.1 Å²
[14]
  collision cross section: 536.91 ± 2.2 Å²

## GTVPDDAVEALADSLGKK [_GTVPDDAVEALADSLGK(Trimethyl (K))K_]
[15]
  collision cross section: 486.05 ± 4.8 Å²
[16]
  collision cross section: 534.79 ± 2.4 Å²

## GTVPDDAVEALADSLGKK [_GTVPDDAVEALADSLGK(hydroxyisobutyryl)K_]
[17]
  collision cross section: 460.24 ± 0.81 Å²
[18]
  collision cross section: 537.74 ± 2.1 Å²

## GVEAVGSYAENQR [_GVEAVGSY(Nitro (Y))AENQR_]
[26]
  collision cross section: 377.43 ± 0.17 Å²
Charge state: 3, modification: Nitro (Y)
  collision cross section: 473.04 ± 0.83 Å²

## GVEAVGSYAENQR [_GVEAVGSY(Phospho (Y))AENQR_]
[27]
  collision cross section: 388.79 ± 0.77 Å²
Charge state: 3, modification: Phospho (Y)
  collision cross section: 472.71 ± 0.98 Å²

## GVPRGVHLGSQGLQR [_GVPR(Citrullination (R))GVHLGSQGLQR_]
Charge state: 2, modification: Citrullination (R)
  collision cross section: 439.96 Å²
[28]
  collision cross section: 482.18 ± 0.41 Å²

## GVPRGVHLGSQGLQR [_GVPR(Methyl (R))GVHLGSQGLQR_]
[29]
  collision cross section: 492.74 ± 2.1 Å²

## GVQYLNEIK [_GVQY(Nitro (Y))LNEIK_]
[26]
  collision cross section: 353.34 ± 0.19 Å²

## GVQYLNEIK [_GVQY(Phospho (Y))LNEIK_]
[27]
  collision cross section: 357.38 ± 0.065 Å²

## GYDVIAQAQSGTGK [_GY(Nitro (Y))DVIAQAQSGTGK_]
[26]
  collision cross section: 387.17 ± 0.17 Å²

## GYDVIAQAQSGTGK [_GY(Phospho (Y))DVIAQAQSGTGK_]
[27]
  collision cross section: 388.75 ± 0.77 Å²

## GYGVIFANGNR [_GY(Nitro (Y))GVIFANGNR_]
[26]
  collision cross section: 360.58 ± 1.2 Å²

## GYGVIFANGNR [_GY(Phospho (Y))GVIFANGNR_]
[27]
  collision cross section: 364.42 ± 0.064 Å²

## GYLGPEQLPDCLK [_GY(Nitro (Y))LGPEQLPDCLK_]
[26]
  collision cross section: 396.71 ± 0.18 Å²

## GYLGPEQLPDCLK [_GY(Phospho (Y))LGPEQLPDCLK_]
[27]
  collision cross section: 400.34 ± 0.08 Å²

## HELQANCYEEVKDR [_HELQANCYEEVK(Acetyl (K))DR_]
[19]
  collision cross section: 446.57 Å²
[20]
  collision cross section: 495.42 ± 1.4 Å²

## HELQANCYEEVKDR [_HELQANCYEEVK(Biotin)DR_]
[21]
  collision cross section: 512.53 ± 1.6 Å²

## HELQANCYEEVKDR [_HELQANCYEEVK(Butyryl)DR_]
[22]
  collision cross section: 452.47 ± 0.51 Å²
[23]
  collision cross section: 502.99 ± 3.8 Å²

## HELQANCYEEVKDR [_HELQANCYEEVK(Formyl)DR_]
[4]
  collision cross section: 490.46 Å²

## HELQANCYEEVKDR [_HELQANCYEEVK(Gluratylation)DR_]
[6]
  collision cross section: 487.76 ± 1.7 Å²

## HELQANCYEEVKDR [_HELQANCYEEVK(GlyGly (K))DR_]
[8]
  collision cross section: 529.53 ± 1.6 Å²

## HELQANCYEEVKDR [_HELQANCYEEVK(Malonyl)DR_]
[10]
  collision cross section: 477.83 ± 2.4 Å²

## HELQANCYEEVKDR [_HELQANCYEEVK(Methyl (K))DR_]
[11]
  collision cross section: 444.71 Å²
[12]
  collision cross section: 527.11 ± 0.72 Å²

## HELQANCYEEVKDR [_HELQANCYEEVK(Succinyl)DR_]
[13]
  collision cross section: 444.39 Å²
[14]
  collision cross section: 483.15 ± 3.9 Å²

## HELQANCYEEVKDR [_HELQANCYEEVK(hydroxyisobutyryl)DR_]
[18]
  collision cross section: 504.98 ± 2.9 Å²

## HFGPVPPSQGRGR [_HFGPVPPSQGR(Citrullination (R))GR_]
[28]
  collision cross section: 445.8 Å²

## HFGPVPPSQGRGR [_HFGPVPPSQGR(Methyl (R))GR_]
[29]
  collision cross section: 491.26 ± 0.38 Å²

## HGGSGGRGVSVSSAR [_HGGSGGR(Citrullination (R))GVSVSSAR_]
[28]
  collision cross section: 485.51 ± 3.7 Å²

## HGGSGGRGVSVSSAR [_HGGSGGR(Methyl (R))GVSVSSAR_]
[29]
  collision cross section: 477.29 ± 1.5 Å²

## HGVYNPNK [_HGVY(Nitro (Y))NPNK_]
[26]
  collision cross section: 338.11 ± 3.3 Å²

Reference: the supplement of paper PMC10598134
